Laboratory results: patent publication US20140087995A1 (published 2014)
Like-named read-outs stand apart in the source and are kept apart here. Blank lines part the entries; values can stand above or below the binder they belong to. Numbered stars: 1 amine (or outer) side, 2 acyl side, 3 side chain; on linkers, the order of the positions; unused ones are H or OH. Bridge positions count the residues as written; N and C are the ends. Side chains are listed from the residue outwards. Ends that are not written are not given here. * marks the point of attachment. C20 diacid = O=C(O)CCCCCCCCCCCCCCCCCCC(=O)*; γGlu = O=C(O)[C@H](CCC(=O)[*:2])N[*:1]

Key:
[1] = target: T1, human amylin receptor (amylin 3(a) receptor: human calcitonin receptor co-expressed with RAMP-3) (human, UniProt P30988 25-474; O60896 24-148, limits assumed); assay: cell-based or functional assay
T1 sequence (looked up) 1: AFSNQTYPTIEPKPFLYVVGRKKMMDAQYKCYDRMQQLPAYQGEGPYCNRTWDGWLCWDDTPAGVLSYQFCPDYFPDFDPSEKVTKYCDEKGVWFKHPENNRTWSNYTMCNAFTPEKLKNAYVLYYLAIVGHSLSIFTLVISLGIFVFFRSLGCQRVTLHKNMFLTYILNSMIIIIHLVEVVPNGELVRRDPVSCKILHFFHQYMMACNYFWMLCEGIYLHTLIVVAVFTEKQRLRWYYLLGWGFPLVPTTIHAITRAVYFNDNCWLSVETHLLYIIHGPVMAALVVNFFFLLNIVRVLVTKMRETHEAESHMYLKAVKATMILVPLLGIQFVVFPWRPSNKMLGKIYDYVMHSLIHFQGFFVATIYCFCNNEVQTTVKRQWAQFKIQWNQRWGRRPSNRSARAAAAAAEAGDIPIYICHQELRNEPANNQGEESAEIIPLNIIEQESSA
T1 sequence (looked up) 2: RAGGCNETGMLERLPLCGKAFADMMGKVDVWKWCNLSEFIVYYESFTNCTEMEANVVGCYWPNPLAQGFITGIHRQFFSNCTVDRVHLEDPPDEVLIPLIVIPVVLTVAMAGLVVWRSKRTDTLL

[2] = target: T2, human calcitonin receptor (human, UniProt P30988 25-474); assay: cell-based or functional assay
T2 sequence (looked up): T1 sequence (looked up) 1

[3] = target: T1, human amylin receptor (amylin 3(a) …); assay: SPA competition binding on membranes of Amylin 3(a)/CRE-luc BHK cells, displacement of 125I-rat amylin (Assay V)
Protocol: (§1) The binding assay was performed using scintillation proximity assay (SPA) beads (RPNQ0001) from PerkinElmer and cell membranes from the Amylin 3(a)/CRE-luc cells (as described in Assay (II)) were used. Membranes were prepared in the following way; the cells were rinsed with PBS and incubated with Versene for approximately 5 min before harvesting. The cells were flushed with PBS and the cell-suspension was centrifuged for 5 min at 1000 rpm. Cells were homogenized (ultrathurrax) in a buffer containing 20 mM Na-HEPES and 10 mM EDTA (pH 7.4) and centrifuged at 20.000 rpm for 15 min. The resulting pellet was resuspended, homogenized and centrifuged (20.000 rpm, 15 min) in a buffer containing 20 mM Na-HEPES and 0.1 mM EDTA (pH 7.4, buffer 2). The resulting pellet was resuspended in buffer 2 and protein concentration was measured (BCA protein Assay, Pierce). The homogenate was kept cold during the whole procedure. The membranes were kept at −80° C. until use. The assay was performed in a 384 well Optiplate (PerkinElmer) in a total volume of 40 ul. Membranes were mixed with SPA beads. Final concentration of membranes 35 ng/μL final and SPA beads was 0.05 mg/well. […] Samples were analyzed on TopCounter™ (Packard). The IC₅₀ was calculated using (one site binding competition analysis) GraphPad Prism5 as a measure of receptor affinity.

[4] = target: T3, human amylin receptor (amylin 3(a) receptor: human calcitonin receptor co-expressed with RAMP-3) (human, UniProt P30988 25-474; O60896 24-148, limits assumed); assay: cell-based or functional assay; remark: listed apart in the source
T3 sequence (looked up) 1: T1 sequence (looked up) 1
T3 sequence (looked up) 2: T1 sequence (looked up) 2

[5] = target: T4, human calcitonin receptor (human, UniProt P30988 25-474); assay: cell-based or functional assay; remark: listed apart in the source
T4 sequence (looked up): T1 sequence (looked up) 1

[6] = target: T3, human amylin receptor (amylin 3(a) …); assay: SPA competition against 125I-rat amylin, membranes of Amylin 3(a)/CRE-luc BHK cells (Assay V)
Protocol: as §1

[7] = target: T5, human amylin 3(a) receptor (human calcitonin receptor co-expressed with RAMP-3) (human, UniProt P30988 25-474; O60896 24-148, limits assumed); assay: cell-based or functional assay
T5 sequence (looked up) 1: T1 sequence (looked up) 1
T5 sequence (looked up) 2: T1 sequence (looked up) 2

[8] = target: T5, human amylin 3(a) receptor (human …); assay: SPA competition vs 125I-rat amylin, membranes of BHK Amylin 3(a)/CRE-luc cells (Assay V)
Protocol: as §1

[9] = target: T6, human amylin receptor (amylin 3(a) receptor: human calcitonin receptor with RAMP-3) (human, UniProt P30988 25-474; O60896 24-148, limits assumed); assay: cell-based or functional assay
T6 sequence (looked up) 1: T1 sequence (looked up) 1
T6 sequence (looked up) 2: T1 sequence (looked up) 2

[10] = target: T7, human calcitonin receptor (human, UniProt P30988 25-474); assay: cell-based or functional assay; remark: listed apart in the source
T7 sequence (looked up): T1 sequence (looked up) 1

[11] = target: T6, human amylin receptor (amylin 3(a) …); assay: SPA competition binding on membranes of BHK cells with human calcitonin receptor + RAMP-3; displacement of 125I-rat amylin (Assay V)
Procedure, shortened: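 Membranes from BHK Amylin 3(a)/CRE-luc cells (35 ng/μL final) were mixed with SPA beads and test compounds in 50 mM Hepes pH 7.4 with 1 mM CaCl2, 5 mM MgCl₂, 0.1% OA and 0.02% Tween20. Incubation ran 120 min at 25° C with shaking; IC₅₀ came from one-site competition fitting.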

hAmylin-R funct. EC50 [1]: 69 pM
hCTR funct. EC50 [2]: 354 pM
IC50 [3]: 0.09 nM
B1: N^ε1-[(4S)-4-carboxy-4-(19-carboxynonadecanoylamino)butanoyl]-[His14,Arg17,Pro21,Pro27,Pro34]-h-amylin (peptide)
peptide: K([γGlu-C20 diacid])CNTATCATQRLAHFLRHSSPNFGAIPSSTNVGPNTY-NH2
modifications: disulfide 2-7; N-terminus assumed
SMILES: CC[C@H](C)[C@H](NC(=O)[C@H](C)NC(=O)CNC(=O)[C@H](Cc1ccccc1)NC(=O)[C@H](CC(N)=O)NC(=O)[C@@H]1CCCN1C(=O)[C@H](CO)NC(=O)[C@H](CO)NC(=O)[C@H](Cc1c[nH]cn1)NC(=O)[C@H](CCCNC(=N)N)NC(=O)[C@H](CC(C)C)NC(=O)[C@H](Cc1ccccc1)NC(=O)[C@H](Cc1c[nH]cn1)NC(=O)[C@H](C)NC(=O)[C@H](CC(C)C)NC(=O)[C@H](CCCNC(=N)N)NC(=O)[C@H](CCC(N)=O)NC(=O)[C@@H](NC(=O)[C@H](C)NC(=O)[C@@H]1CSSC[C@H](NC(=O)[C@@H](N)CCCCNC(=O)CC[C@H](NC(=O)CCCCCCCCCCCCCCCCCCC(=O)O)C(=O)O)C(=O)N[C@@H](CC(N)=O)C(=O)N[C@@H]([C@@H](C)O)C(=O)N[C@@H](C)C(=O)N[C@@H]([C@@H](C)O)C(=O)N1)[C@@H](C)O)C(=O)N1CCC[C@H]1C(=O)N[C@@H](CO)C(=O)N[C@@H](CO)C(=O)N[C@H](C(=O)N[C@@H](CC(N)=O)C(=O)N[C@H](C(=O)NCC(=O)N1CCC[C@H]1C(=O)N[C@@H](CC(N)=O)C(=O)N[C@H](C(=O)N[C@@H](Cc1ccc(O)cc1)C(N)=O)[C@@H](C)O)C(C)C)[C@@H](C)O
notes: also called compound 67

hAmylin-R funct. EC50 [4]: 69 pM
Ratio hCT/hAmylin funct. (hCTR EC50 against hAmylin-R EC50) [5]: 5.2
hCTR funct. EC50 [5]: 354 pM
IC50 [6]: 0.09 nM
B2: N^ε1-[(4S)-4-carboxy-4-(19-carboxynonadecanoylamino)butanoyl]-[His14,Arg17,Pro21,Pro27,Pro34]-h-amylin (peptide)
peptide: K([γGlu-C20 diacid])CNTATCATQRLAHFLRHSSPNFGAIPSSTNVGPNTY-NH2
modifications: disulfide 2-7; N-terminus assumed
SMILES: CC[C@H](C)[C@H](NC(=O)[C@H](C)NC(=O)CNC(=O)[C@H](Cc1ccccc1)NC(=O)[C@H](CC(N)=O)NC(=O)[C@@H]1CCCN1C(=O)[C@H](CO)NC(=O)[C@H](CO)NC(=O)[C@H](Cc1c[nH]cn1)NC(=O)[C@H](CCCNC(=N)N)NC(=O)[C@H](CC(C)C)NC(=O)[C@H](Cc1ccccc1)NC(=O)[C@H](Cc1c[nH]cn1)NC(=O)[C@H](C)NC(=O)[C@H](CC(C)C)NC(=O)[C@H](CCCNC(=N)N)NC(=O)[C@H](CCC(N)=O)NC(=O)[C@@H](NC(=O)[C@H](C)NC(=O)[C@@H]1CSSC[C@H](NC(=O)[C@@H](N)CCCCNC(=O)CC[C@H](NC(=O)CCCCCCCCCCCCCCCCCCC(=O)O)C(=O)O)C(=O)N[C@@H](CC(N)=O)C(=O)N[C@@H]([C@@H](C)O)C(=O)N[C@@H](C)C(=O)N[C@@H]([C@@H](C)O)C(=O)N1)[C@@H](C)O)C(=O)N1CCC[C@H]1C(=O)N[C@@H](CO)C(=O)N[C@@H](CO)C(=O)N[C@H](C(=O)N[C@@H](CC(N)=O)C(=O)N[C@H](C(=O)NCC(=O)N1CCC[C@H]1C(=O)N[C@@H](CC(N)=O)C(=O)N[C@H](C(=O)N[C@@H](Cc1ccc(O)cc1)C(N)=O)[C@@H](C)O)C(C)C)[C@@H](C)O
notes: also called compound 67

Ratio hCT/hAmylin funct. (hCTR EC50 over hAmylin-R EC50) [7]: 23.1
hAmylin-R funct. EC50 (pM) [7]: 433 pM
IC50 [8]: 1.14 nM
B3: N^α1-[2-[2-[2-[[2-[2-[2-[[(4S)-4-carboxy-4-(19-carboxynonadecanoylamino)butanoyl]amino]ethoxy]ethoxy]acetyl]amino]ethoxy]ethoxy]acetyl]-[Arg17,Pro21,Pro27]-h-am … (peptide)
peptide: KCNTATCATQRLANFLRHSSPNFGAIPSSTNVGSNTY
modifications: alpha-amino group of N-terminal Lys1 acylated with C20 diacid via linker gGlu-2xOEG; disulfide bridge Cys2-Cys7 and C-terminal amide as in human amylin
notes: also called compound 24

hAmylin-R funct. EC50 (pM) [9]: 363 pM
Ratio hCT/hAmylin funct. [10]: 6.1 ratio
hCTR funct. EC50 (pM) [10]: 2220 pM
IC50 [11]: 0.894 nM
B4: N^α1-[(4S)-4-carboxy-4-(19-carboxynonadecanoylamino)butanoyl]-[Glu14,Arg17,Pro21,Pro27,Arg35]-h-amylin (peptide)
peptide: {C20 diacid-γGlu}-KCNTATCATQRLAEFLRHSSPNFGAIPSSTNVGSRTY-NH2
modifications: disulfide 2-7
SMILES: CC[C@H](C)[C@H](NC(=O)[C@H](C)NC(=O)CNC(=O)[C@H](Cc1ccccc1)NC(=O)[C@H](CC(N)=O)NC(=O)[C@@H]1CCCN1C(=O)[C@H](CO)NC(=O)[C@H](CO)NC(=O)[C@H](Cc1c[nH]cn1)NC(=O)[C@H](CCCNC(=N)N)NC(=O)[C@H](CC(C)C)NC(=O)[C@H](Cc1ccccc1)NC(=O)[C@H](CCC(=O)O)NC(=O)[C@H](C)NC(=O)[C@H](CC(C)C)NC(=O)[C@H](CCCNC(=N)N)NC(=O)[C@H](CCC(N)=O)NC(=O)[C@@H](NC(=O)[C@H](C)NC(=O)[C@@H]1CSSC[C@H](NC(=O)[C@H](CCCCN)NC(=O)CC[C@H](NC(=O)CCCCCCCCCCCCCCCCCCC(=O)O)C(=O)O)C(=O)N[C@@H](CC(N)=O)C(=O)N[C@@H]([C@@H](C)O)C(=O)N[C@@H](C)C(=O)N[C@@H]([C@@H](C)O)C(=O)N1)[C@@H](C)O)C(=O)N1CCC[C@H]1C(=O)N[C@@H](CO)C(=O)N[C@@H](CO)C(=O)N[C@H](C(=O)N[C@@H](CC(N)=O)C(=O)N[C@H](C(=O)NCC(=O)N[C@@H](CO)C(=O)N[C@@H](CCCNC(=N)N)C(=O)N[C@H](C(=O)N[C@@H](Cc1ccc(O)cc1)C(N)=O)[C@@H](C)O)C(C)C)[C@@H](C)O
notes: also called compound 16
